According to patent US20190119331A1, “SYSTEM AND METHOD OF OPTOGENETICALLY CONTROLLING METABOLIC PATHWAYS FOR THE PRODUCTION OF CHEMICALS” (The Trustees of Princeton University, published 2019):

Tests used:
Gal4p = Gal4p (yeast (Saccharomyces cerevisiae), UniProt P04386); assay: cell-based or functional assay
[1] = target: Gal4p-PSD fusion protein (yeast (Saccharomyces cerevisiae); Arabidopsis thaliana) (UniProt P04386)

B1: Gal80p (other)
chain: MDYNKRSSVSTVPNAAPIRVGFVGLNAAKGWAIKTHYPAILQLSSQFQITALYSPKIETSIATIQRLKLSNATAFPTLESFASSSTIDMIVIAIQVASHYEVVMPLLEFSKNNPNLKYLFVEWALACSLDQAESIYKAAAERGVQTIISLQGRKSPYILRAKELISQGYIGDINSIEIAGNGGWYGYERPVKSPKYIYEIGNGVDLVTTTFGHTIDILQYMTSSYFSRINAMVFNNIPEQELIDERGNRLGQRVPKTVPDHLLFQGTLLNGNVPVSCSFKGGKPTKKFTKNLVIDIHGTKGDLKLEGDAGFAEISNLVLYYSGTRANDFPLANGQQAPLDPGYDAGKEIMEVYHLRNYNAIVGNIHRLYQSISDFHFNTKKIPELPSQFVMQGFDFEGFPTLMDALILHRLIESVYKSNMMGSTLNVSNISHYSL
B1 was tested, and the “GFP expression from PGAL1-GFP reporter (GFP/OD600), blue light (GAL80 expressed) against dark, strain YEZ100 (OptoINVRT1, gal4 gal80 deleted background)” value (Gal4p) was 45.7 fold decrease and the GFP expression from PGAL1-GFP reporter (GFP/OD600), blue light against dark, strain YEZ102 (OptoINVRT3) [1] was 70 fold.
